Laboratory results published in paper PMC6422896, “CrgA Protein Represses AlkB2 Monooxygenase and Regulates the Degradation of Medium-to-Long-Chain n-Alkanes in Pseudomonas aeruginosa SJTD-1” (Frontiers in Microbiology, 2019).

B1: alkB2-U46 (dsDNA)
DNA 1: AGGACAATTGTCAGACAATCTAACAAGATAAATACGAGGACTTCCC
DNA 2: GGGAAGTCCTCGTATTTATCTTGTTAGATTGTCTGACAATTGTCCT
B2: alkB2-b2 (dsDNA)
DNA 1: AGGACAATTGTCAGACAATCTAACAAGCGGCGGACAGAACGAAGATAAATACGAGGACTTCCC
DNA 2: GGGAAGTCCTCGTATTTATCTTCGTTCTGTCCGCCGCTTGTTAGATTGTCTGACAATTGTCCT
B3: alkB2-b1 (dsDNA)
DNA 1: AGGACAATTGTCAGACAATCTAACAGGGATGGGGCAGGCCGGCCAAGGGAGATAAATACGAGGACTTCCC
DNA 2: GGGAAGTCCTCGTATTTATCTCCCTTGGCCGGCCTGCCCCATCCCTGTTAGATTGTCTGACAATTGTCCT

Each binder was assayed against T1, CrgA (Pseudomonas aeruginosa SJTD-1, UniProt Q9I4D7 1-304) (assay: EMSA; EMSA: 20 mM Tris-HCl, 50 mM NaCl, 1 mM DTT, 0.1 mM EDTA, pH 7.5, 37 C 30 min, 4 pmol DNA in 20 uL, 8% native PAGE; footprinting at 25 C). Settings: protein: recombinant; tags: His-tag (pET28a, Ni-NTA; NdeI/BamHI cloning, N-terminal tag likely); chain copies: 4; label: 5'-FAM on strand 2; blunt.
T1 sequence: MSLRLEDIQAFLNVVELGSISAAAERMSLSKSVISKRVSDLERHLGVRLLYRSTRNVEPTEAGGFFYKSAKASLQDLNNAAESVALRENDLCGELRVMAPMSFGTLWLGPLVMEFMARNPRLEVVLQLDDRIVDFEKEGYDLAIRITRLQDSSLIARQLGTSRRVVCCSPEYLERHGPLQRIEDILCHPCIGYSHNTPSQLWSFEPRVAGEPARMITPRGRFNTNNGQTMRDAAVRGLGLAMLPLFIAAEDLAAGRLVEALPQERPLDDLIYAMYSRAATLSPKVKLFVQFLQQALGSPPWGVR
B1: no binding.
B2: binds.
B3: binds.
